Residue numbers refer to the chain shown, from its start.
Experiments:
[1] = target: OX40 expressed on Jurkat cells (NF-kB luciferase reporter line) (UniProt P43489); assay: cell-based or functional assay
[2] = target: anti-OX40 clone 3C8, iAbaff2 IgG; assay: SEC-MALS at 1.9 mg/ml, self-association
[3] = target: anti-OX40 clone 3C8, iAbaff2 IgG; assay: SEC-MALS, self-association
[4] = target: anti-OX40 clone 3C8, iAbaff2 IgG; assay: SEC-MALS at 4.9 mg/ml, self-association
[5] = target: anti-OX40 clone 3C8, iAbaff2 IgG; assay: SEC-MALS at 0.38 mg/ml, self-association

Sequence of UniProt P43489 (P43489 29-277 limits assumed): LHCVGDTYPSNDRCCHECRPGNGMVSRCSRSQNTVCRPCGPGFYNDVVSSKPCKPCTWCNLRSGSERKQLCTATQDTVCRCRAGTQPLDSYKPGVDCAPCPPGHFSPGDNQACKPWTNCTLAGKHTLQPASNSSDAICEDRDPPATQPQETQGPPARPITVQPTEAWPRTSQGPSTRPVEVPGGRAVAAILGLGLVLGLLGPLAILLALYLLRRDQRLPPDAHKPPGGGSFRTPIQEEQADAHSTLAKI

B1: anti-OX40 clone 3C8, iAbaff1 monomeric Fab (Fab, part only; not given: Light chain, CH1 and tag, not shown: small tags and cut ends)
heavy, part: EVQLVQSGAEVKKPGATVVVLCKASGYAFTNYLIEWVRQAPGQGLEWIGVINPGSGDTYYSEKFKGRVTLFADTSTSQAILILTSLRSEDTAVYYCARDRLDYWGQGTLVTVSS
**Q.** For B1, which EC50 of OX40 agonist activity (Jurkat OX40 NF-kB luciferase reporter), fold against iAb IgG [1] is on record?
**A.** The EC50 of OX40 agonist activity (Jurkat OX40 NF-kB luciferase reporter), fold against iAb IgG was 100 fold.

**Q.** What about the maximal OX40 agonist activity (Jurkat OX40 NF-kB luciferase reporter), fold against iAb IgG [1] of the same binder?
**A.** Its maximal OX40 agonist activity (Jurkat OX40 NF-kB luciferase reporter), fold against iAb IgG is 2 fold.

B2: anti-OX40 clone 3C8, iAbaff2 IgG (antibody, part only; not given: Light chain, V domains shown, part only)
VH: B1 heavy, part with T17S, V19I, L21S, T69F, Q78T, I80Y, I82V, T84S
**Q.** With B2 as the binder, how does the SEC-MALS Molecular Weight (Da) [2] read?
**A.** Its SEC-MALS Molecular Weight (Da) is 225000 Da.

**Q.** And the SEC-MALS Molecular Weight (Da) [3]?
**A.** Its SEC-MALS Molecular Weight (Da) is 227000 Da.

**Q.** And the SEC-MALS Molecular Weight (Da) [4]?
**A.** Its SEC-MALS Molecular Weight (Da) is 244000 Da.

**Q.** And the SEC-MALS Molecular Weight (Da) [5]?
**A.** The SEC-MALS Molecular Weight (Da) was 204000 Da.

Reference: patent US20250011450A1
